Results from US20150344570A1 (published 2015).
Where a chain is given by its changes, count along the chain named. In names and notes the source's numbering stands.

T1: FcgRIIb (FcγRIIb) extracellular domain with C-terminal His tag (human, UniProt P31994 43-217)
T1 construct: extracellular domain; not shown: His tag attached to the C terminus
T1 sequence (looked up): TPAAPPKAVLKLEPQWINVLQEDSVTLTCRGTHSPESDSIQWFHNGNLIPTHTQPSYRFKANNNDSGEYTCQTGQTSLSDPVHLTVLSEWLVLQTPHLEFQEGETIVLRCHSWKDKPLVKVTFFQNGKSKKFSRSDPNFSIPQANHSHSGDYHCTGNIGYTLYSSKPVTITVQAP

T2: FcgRIIa H (FcγRIIa type H) extracellular domain with C-terminal His tag (human, UniProt P12318 34-217)
T2 construct: extracellular domain; also called FcγRIIa H; not shown: His tag attached to the C terminus
T2 sequence (looked up): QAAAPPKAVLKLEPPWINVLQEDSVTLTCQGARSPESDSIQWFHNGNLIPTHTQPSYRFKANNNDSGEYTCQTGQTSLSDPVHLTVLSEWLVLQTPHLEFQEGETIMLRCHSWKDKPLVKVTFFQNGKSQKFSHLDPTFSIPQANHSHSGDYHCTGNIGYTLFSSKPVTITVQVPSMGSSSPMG

T3: FcgRIIa R (FcγRIIa type R) extracellular domain with C-terminal His tag (human, UniProt P12318 34-217)
T3 construct: extracellular domain; also called FcγRIIa R; not shown: His tag attached to the C terminus
T3 sequence (looked up): T2 sequence (looked up) with H134R

B1: H240-Kn061/H240-Hl071/L73-k0 variant with Y235A in H240-Kn061 (antibody, human IgG1, kappa)
heavy 1: QDQLVQSGAEVKKPGASVKVSCKASGFNIKDTYIQWVRQAPGQGLEWMGRIDPLRKQTKYREKFEGRVTITADTSTNTAYMELSSLRSEDTAVYYCVRSGREFDYWGQGTLVTVSSASTKGPSVFPLAPSSKSTSGGTAALGCLVKDYFPEPVTVSWNSGALTSGVHTFPAVLQSSGLYSLSSVVTVPSSSLGTQTYICNVNHKPSNTKVDKKVEPKSCDKTHTCPPCPAPEYAWGPSVFLFPPKPKDTLMISRTPEVTCVVVDVSDEDPEVKFNWYVDGVEVHNAKTKPREEQYNATYRVVSVLTVLHQDWLNGKEYKCKVSNKALPAPIEKTISKAKGQPREPQVCTLPPSRDELTKNQVSLWCLVKGFYPSDIAVEWESNGQPENNYKTTPPVLDSDGSFFLYSKLTVDKSRWQQGNVFSCSVMHEALHNHYTQKSLSLSP
heavy 2: QDQLVQSGAEVKKPGASVKVSCKASGFNIKDTYIQWVRQAPGQGLEWMGRIDPLRKQTKYREKFEGRVTITADTSTNTAYMELSSLRSEDTAVYYCVRSGREFDYWGQGTLVTVSSASTKGPSVFPLAPSSKSTSGGTAALGCLVKDYFPEPVTVSWNSGALTSGVHTFPAVLQSSGLYSLSSVVTVPSSSLGTQTYICNVNHKPSNTKVDKKVEPKSCDKTHTCPPCPAPELLGGPSVFLFPPKPKDTLMISRTPEVTCVVVDVSHEDPEVKFNWYVDGVEVHNAKTKPREEQYNSTYRVVSVLTVLHQDWLNGKEYKCKVSNDALPMPIEETISKAKGQPREPQVYTLPPSRCELTKNQVSLSCAVKGFYPSDIAVEWESNGQPENNYKTTPPVLDSDGSFFLVSKLTVDKSRWQQGNVFSCSVMHEALHNHYTQKSLSLSP
light: DIQMTQSPSSLSASVGDRVTITCRASQDIHKYIAWYQQKPGQAPRLLIQYTSTLQPGVPSRFSGSGSGTDYTFTISSLQPEDIATYYCLQYEQLRTFGGGTKVEIKRTVAAPSVFIFPPSDEQLKSGTASVVCLLNNFYPREAKVQWKVDNALQSGNSQESVTEQDSKDSTYSLSSTLTLSKADYEKHKVYACEVTHQGLSSPVTKSFNRGEC
notes: anti-epiregulin heterodimerized IgG1; also called H240-Kn061 Y235A
B2: H240-Kn061/H240-Hl071/L73-k0 variant with Y235P in H240-Kn061 (antibody, human IgG1, kappa)
heavy 1: B1 heavy 1 with A234P
heavy 2: B1 heavy 2
light: B1 light
notes: anti-epiregulin heterodimerized IgG1; also called H240-Kn061 Y235P
B3: H240-Kn061/H240-Hl071/L73-k0 variant with Y235I in H240-Kn061 (antibody, human IgG1, kappa)
heavy 1: B1 heavy 1 with A234I
heavy 2: B1 heavy 2
light: B1 light
notes: anti-epiregulin heterodimerized IgG1; also called H240-Kn061 Y235I
B4: H240-Kn061/H240-Hl071/L73-k0 variant with Y235V in H240-Kn061 (antibody, human IgG1, kappa)
heavy 1: B1 heavy 1 with A234V
heavy 2: B1 heavy 2
light: B1 light
notes: anti-epiregulin heterodimerized IgG1; also called H240-Kn061 Y235V
B5: H240-Kn061/H240-Hl071/L73-k0 variant with Y235Q in H240-Kn061 (antibody, human IgG1, kappa)
heavy 1: B1 heavy 1 with A234Q
heavy 2: B1 heavy 2
light: B1 light
notes: anti-epiregulin heterodimerized IgG1; also called H240-Kn061 Y235Q
B6: H240-Kn061/H240-Hl071/L73-k0 variant with Y234E in H240-Kn061 (antibody, human IgG1, kappa)
heavy 1: B1 heavy 1 with Y233E, A234Y
heavy 2: B1 heavy 2
light: B1 light
notes: anti-epiregulin heterodimerized IgG1; also called H240-Kn061 Y234E
B7: H240-Kn061/H240-Hl071/L73-k0 variant with V240H in H240-Hl071 (antibody, human IgG1, kappa)
heavy 1: B1 heavy 1 with A234Y
heavy 2: B1 heavy 2 with V239H
light: B1 light
notes: anti-epiregulin heterodimerized IgG1; also called H240-Hl071 V240H
B8: H240-Kn061/H240-Hl071/L73-k0 variant with Y234L in H240-Kn061 (antibody, human IgG1, kappa)
heavy 1: B1 heavy 1 with Y233L, A234Y
heavy 2: B1 heavy 2
light: B1 light
notes: anti-epiregulin heterodimerized IgG1; also called H240-Kn061 Y234L
B9: H240-Kn061/H240-Hl071/L73-k0 variant with Y234I in H240-Kn061 (antibody, human IgG1, kappa)
heavy 1: B1 heavy 1 with Y233I, A234Y
heavy 2: B1 heavy 2
light: B1 light
notes: anti-epiregulin heterodimerized IgG1; also called H240-Kn061 Y234I

biological target: T4, FcgRIIIa F (FcγRIIIa type F) extracellular domain with C-terminal His tag (human, UniProt P08637 17-208); assay: SPR (Biacore); KD of H240-Kn061/H240-Hl071/L73-k0 divided by KD of the variant
T4 construct: extracellular domain; also called FcγRIIIa F; 3aF; not shown: His tag attached to the C terminus
T4 sequence (P08637 17-208): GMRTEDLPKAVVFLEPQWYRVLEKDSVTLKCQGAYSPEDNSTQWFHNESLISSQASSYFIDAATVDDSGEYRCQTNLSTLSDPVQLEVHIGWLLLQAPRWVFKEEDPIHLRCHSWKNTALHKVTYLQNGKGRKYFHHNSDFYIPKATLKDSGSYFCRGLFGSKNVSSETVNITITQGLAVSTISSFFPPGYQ

relative KD [ratio] | Binder
1.2 | B1
1.1 | B2
1.3 | B3
1.2 | B4
1 | B5
1.9 | B6

biological target: T1, FcgRIIb (FcγRIIb) extracellular domain …; assay: as above

relative KD [ratio] | Binder
0.2 | B1
0.5 | B2
0.2 | B3
0.2 | B4
0.1 | B5
0.5 | B6

biological target: T5, FcgRIIIa V (FcγRIIIa type V) extracellular domain with C-terminal His tag (human, UniProt P08637 17-208); assay: as above
T5 construct: extracellular domain; also called FcγRIIIa V; not shown: His tag attached to the C terminus
T5 sequence (P08637 17-208 F176V limits assumed): as the sequence (P08637 17-208) above, with F160V counted along it

relative KD [ratio] | Binder
1.3 | B1
1.5 | B2
1.6 | B3
1.3 | B4
1.3 | B5
1.6 | B6

biological target: T4, FcgRIIIa F (FcγRIIIa type F) …; assay: as above; remark: another data set of the same source
Procedure: (§1) The antibodies were assessed for the binding to each FcgR. […] The resultant value was defined as relative KD, and used as an assessment indicator.
(§2) Analysis of interaction between objective antibody and the FcγR was carried out using Biacore T100 (GE Healthcare), Biacore T200, Biacore A100, and Biacore 4000. HBS-EP+ (GE Healthcare) was used as the running buffer, and the measurement temperature was set to 25° C. Chips produced by immobilizing the antigen peptide by the amine coupling method to a Series S sensor Chip CM5 (GE Healthcare), chips produced by allowing preliminarily biotinylated antigen peptides to interact with and immobilize onto a Series S Sensor Chip SA (certified) (GE Healthcare), chips produced by immobilizing Protein L (ACTIGEN, BioVision) to Series S Sencor Chip CM5 (GE Healthcare), or chips produced by immobilizing Protein A/G (Thermo Scientific) to Series S Sencor Chip CM5 (GE Healthcare) were used. Antibodies of interest were captured onto these chips, and allowed to interact to each FcγR diluted with running buffer.

relative KD [ratio] | Binder
1.2 | B1
1.1 | B2
1.3 | B3
1.2 | B4
1 | B5
1.3 | B7
1.1 | B8
1.2 | B9
1.9 | B6

biological target: T1, FcgRIIb (FcγRIIb) extracellular domain …; assay: as above; remark: another data set of the same source
Procedure: as §1, §2

relative KD [ratio] | Binder
0.2 | B1
0.5 | B2
0.2 | B3
0.2 | B4
0.1 | B5
0.3 | B7
3.5 | B8
7.7 | B9
0.5 | B6

biological target: T2, FcgRIIa H (FcγRIIa type H) …; assay: as above
Procedure: as §1, §2

relative KD [ratio] | Binder
0.5 | B1
0.4 | B2
0.4 | B3
0.4 | B4
0.4 | B5
0.8 | B7
1.5 | B8
2.6 | B9
0.7 | B6

biological target: T5, FcgRIIIa V (FcγRIIIa type V) …; assay: as above; remark: another data set of the same source
Procedure: as §1, §2

relative KD [ratio] | Binder
1.3 | B1
1.5 | B2
1.6 | B3
1.3 | B4
1.3 | B5
1 | B7
1.2 | B8
1.3 | B9
1.6 | B6

biological target: T3, FcgRIIa R (FcγRIIa type R) …; assay: as above
Procedure: as §1, §2

relative KD [ratio] | Binder
0.5 | B1
0.6 | B2
0.7 | B3
0.5 | B4
0.8 | B5
0.7 | B7
2.2 | B8
4.1 | B9
1.4 | B6
